# ± gives the standard deviation of the averaged measurements.
# Tested on: ATP
# Assay: switch fluorescence ratio, 500 uM ATP over buffer (Cy3 cluster intensity, sum of 5 cycles each) (fold (ratio)); higher = stronger signal-on switching upon ATP binding; sequences stand for … in TCGTCGGCAGCGTCAGATGTGTATAAGAGACAGTTTTTTTTTTTTTTTTTTTTTTTTT…TC
# Conditions: aptamer strand: ATP DNA aptamer (quencher-CACCTGGGGGAGTATTGCGGAGGAAGG + anchor), 100 nM annealed; ATP concentration: 500 uM
# Method in brief: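 Exposure to 500 uM ATP lasted 15 min at 22 °C before imaging, and a selection-buffer image was taken beforehand, for Cy3-labelled switching-strand clusters on a modified Illumina MiSeq flow-cell annealed to 100 nM quencher-labelled ATP aptamer. Five buffer/ATP cycles were run with NaOH stripping and re-annealing between them. The fluorescence ratio per cluster is summed target-cycle over summed buffer-cycle Cy3 intensity, averaged per switch-domain sequence. Clusters outside 100-1000 RFU were excluded.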
row,Sequence,switch fluorescence ratio
1,TTTGCCGGG,1.02 ± 0.0019
2,TTTGCCGGGA,1.01 ± 0.019
3,TTTGCCGGGT,0.998 ± 0.046
4,TTTGCCTTTT,1 ± 0.042
5,TTTGCGAGGG,1.01 ± 0.018
6,TTTGCGCTTT,1.1 ± 0.084
7,TTTGCGGAAA,1.01 ± 0.023
8,TTTGCGGTCA,1.021 ± 0.0091
9,TTTGCGTTCA,1.02 ± 0.078
10,TTTGCTACTG,1.052 ± 0.0096
11,TTTGCTCGGG,1.003 ± 0.002
12,TTTGCTGCGG,1.03 ± 0.041
13,TTTGCTGGCG,0.935 ± 0.024
14,TTTGCTTGGT,0.994 ± 0.03
15,TTTGGAAAAA,0.996 ± 0.032
16,TTTGGAAAAC,0.9853 ± 0.0027
17,TTTGGAAATT,1.43 ± 0.61
18,TTTGGAAGCC,1 ± 0.041
19,TTTGGAATAG,1.06 ± 0.045
20,TTTGGAATAT,1.04 ± 0.013
21,TTTGGACAGT,0.978 ± 0.03
22,TTTGGAGGTG,1.04 ± 0.024
23,TTTGGATGCG,1.01 ± 0.077
24,TTTGGATTGG,0.967 ± 0.023
25,TTTGGATTTA,1.03 ± 0.057

row,Sequence,switch fluorescence ratio
1,TTTGGATTTC,1 ± 0.013
2,TTTGGCCTAG,1.02 ± 0.041
3,TTTGGCGGAG,0.992 ± 0.03
4,TTTGGCTAAA,1 ± 0.044
5,TTTGGCTGTT,0.998 ± 0.029
6,TTTGGCTTAA,0.9962 ± 0.006
7,TTTGGCTTTG,1.02 ± 0.05
8,TTTGGGATCG,0.98 ± 0.045
9,TTTGGGATCT,0.9881 ± 0.0098
10,TTTGGGATTG,1.07 ± 0.015
11,TTTGGGCGAG,0.976 ± 0.045
12,TTTGGGCTTC,1.0067 ± 0.00097
13,TTTGGGGAAG,1.01 ± 0.025
14,TTTGGGGAGG,1.02 ± 0.058
15,TTTGGGGCAT,1.032 ± 0.0027
16,TTTGGGGGAT,1.02 ± 0.1
17,TTTGGGGGGA,1.05 ± 0.21
18,TTTGGGGGGT,0.985 ± 0.02
19,TTTGGGGGTA,1.06 ± 0.068
20,TTTGGGGGTC,1.1 ± 0.24
21,TTTGGGGTCC,1.07 ± 0.1
22,TTTGGGGTCG,0.992 ± 0.034
23,TTTGGGGTTT,1.07 ± 0.24
24,TTTGGGTATT,0.9684 ± 0.0013
25,TTTGGGTCTC,0.998 ± 0.019

row,Sequence,switch fluorescence ratio
1,TTTGGGTGGA,1.02 ± 0.05
2,TTTGGGTTAC,1.04 ± 0.044
3,TTTGGGTTCA,0.972 ± 0.026
4,TTTGGGTTCC,1.44 ± 0.35
5,TTTGGTCATA,0.983 ± 0.024
6,TTTGGTCGC,0.9851 ± 0.0012
7,TTTGGTGACG,1.09 ± 0.029
8,TTTGGTGTCT,0.96 ± 0.025
9,TTTGGTTAAT,0.959 ± 0.027
10,TTTGGTTAGT,0.991 ± 0.023
11,TTTGGTTGAA,1.03 ± 0.088
12,TTTGGTTGAC,1.02 ± 0.053
13,TTTGGTTTGG,1.01 ± 0.036
14,TTTGTAAAAT,0.99 ± 0.021
15,TTTGTACAAC,1.01 ± 0.05
16,TTTGTACCGT,1.06 ± 0.1
17,TTTGTACTTC,1.02 ± 0.049
18,TTTGTATATT,1.01 ± 0.053
19,TTTGTATGGA,0.973 ± 0.011
20,TTTGTATTGG,0.998 ± 0.035
21,TTTGTCAGAC,1.03 ± 0.054
22,TTTGTCATTC,1 ± 0.0017
23,TTTGTCATTT,0.98 ± 0.016
24,TTTGTCCTTT,1.029 ± 0.0084
25,TTTGTCGCCG,1.01 ± 0.029

row,Sequence,switch fluorescence ratio
1,TTTGTCGTAA,0.999 ± 0.0014
2,TTTGTCTAGG,0.994 ± 0.019
3,TTTGTGACAG,1.02 ± 0.018
4,TTTGTGAGGA,0.996 ± 0.034
5,TTTGTGATTA,0.9954 ± 0.0093
6,TTTGTGGATG,0.985 ± 0.03
7,TTTGTGGCTA,1.03 ± 0.031
8,TTTGTGGGGG,1.01 ± 0.041
9,TTTGTGGTCT,0.991 ± 0.032
10,TTTGTGTTG,0.977 ± 0.024
11,TTTGTGTTGT,1.015 ± 0.0099
12,TTTGTTAAGC,0.973 ± 0.061
13,TTTGTTAGA,0.988 ± 0.012
14,TTTGTTAGCA,0.98708 ± 0.0008
15,TTTGTTAGGC,0.991 ± 0.029
16,TTTGTTAGGG,0.994 ± 0.022
17,TTTGTTCACT,0.989 ± 0.041
18,TTTGTTCATT,0.953 ± 0.019
19,TTTGTTCGGT,1.01 ± 0.013
20,TTTGTTCTT,1 ± 0.014
21,TTTGTTGCA,1.02 ± 0.011
22,TTTGTTGGCA,0.986 ± 0.024
23,TTTGTTTATC,1.02 ± 0.057
24,TTTGTTTCGA,1.05 ± 0.11
25,TTTGTTTGG,1 ± 0.017

row,Sequence,switch fluorescence ratio
1,TTTGTTTGGA,1.01 ± 0.046
2,TTTGTTTTAC,1.18 ± 0.21
3,TTTGTTTTTA,1.02 ± 0.041
4,TTTGTTTTTG,1 ± 0.026
5,TTTTAAAAGT,1 ± 0.03
6,TTTTAAAGGT,1.01 ± 0.024
7,TTTTAAATGC,1.07 ± 0.13
8,TTTTAAATGG,1.06 ± 0.052
9,TTTTAACCGA,1.08 ± 0.034
10,TTTTAACTAA,1.005 ± 0.0046
11,TTTTAAGAGG,1.01 ± 0.046
12,TTTTAAGGCA,1.03 ± 0.031
13,TTTTAAGGTA,0.996 ± 0.026
14,TTTTAAGGTC,1.019 ± 0.0034
15,TTTTAAGTCT,1.02 ± 0.0036
16,TTTTAAGTGG,0.991 ± 0.023
17,TTTTAAGTGT,1 ± 0.045
18,TTTTAATCCA,1.01 ± 0.033
19,TTTTAATGCA,0.977 ± 0.018
20,TTTTAATTTC,0.955 ± 0.14
21,TTTTACCCGT,1.01 ± 0.013
22,TTTTACCGTT,1.02 ± 0.015
23,TTTTACGATG,1 ± 0.012
24,TTTTACGTGG,0.9938 ± 0.0019
25,TTTTACGTTA,1.23 ± 0.11

row,Sequence,switch fluorescence ratio
1,TTTTACGTTT,1.04 ± 0.12
2,TTTTACTTCT,1.04 ± 0.062
3,TTTTAGAAAT,1.98 ± 1.3
4,TTTTAGAAGG,0.9797 ± 0.0062
5,TTTTAGAGTA,1.003 ± 0.009
6,TTTTAGATAG,1.06 ± 0.11
7,TTTTAGATGG,1.2 ± 0.2
8,TTTTAGCTGG,1 ± 0.015
9,TTTTAGGGTA,1.03 ± 0.017
10,TTTTAGGTAG,0.99 ± 0.0029
11,TTTTAGGTGT,1.28 ± 0.26
12,TTTTAGTACT,0.99 ± 0.036
13,TTTTAGTAGT,1.008 ± 0.01
14,TTTTAGTTCC,1.05 ± 0.018
15,TTTTAGTTCT,1.25 ± 0.42
16,TTTTAGTTGG,0.954 ± 0.038
17,TTTTAGTTTT,1 ± 0.031
18,TTTTATAATG,1.038 ± 0.0011
19,TTTTATAT,0.98 ± 0.03
20,TTTTATATAC,1.14 ± 0.076
21,TTTTATATGT,1.02 ± 0.028
22,TTTTATCAAT,1.003 ± 0.0076
23,TTTTATCTGT,1.01 ± 0.091
24,TTTTATGAAA,0.997 ± 0.012
25,TTTTATGAAG,1.04 ± 0.02

row,Sequence,switch fluorescence ratio
1,TTTTATGCGA,1.01 ± 0.02
2,TTTTATGGGC,1.01 ± 0.025
3,TTTTATGTCA,1.03 ± 0.051
4,TTTTATTTTT,0.997 ± 0.028
5,TTTTCAACAC,1.04 ± 0.033
6,TTTTCAAGTA,0.9789 ± 0.0094
7,TTTTCAAGTC,1.05 ± 0.15
8,TTTTCACTGG,1.01 ± 0.017
9,TTTTCAGTAG,0.9996 ± 0.0039
10,TTTTCATCGC,1.18 ± 0.18
11,TTTTCATGAT,0.991 ± 0.022
12,TTTTCATGGT,1.01 ± 0.035
13,TTTTCATGTG,0.995 ± 0.027
14,TTTTCATTAC,1.26 ± 0.069
15,TTTTCCAAGG,1.06 ± 0.031
16,TTTTCCAATG,1.02 ± 0.017
17,TTTTCCACGG,1.21 ± 0.16
18,TTTTCCATTT,0.99 ± 0.023
19,TTTTCCCATT,1.02 ± 0.075
20,TTTTCCCGAA,0.967 ± 0.026
21,TTTTCCCGGG,1.13 ± 0.15
22,TTTTCCTGCT,1.07 ± 0.082
23,TTTTCGACTA,0.97 ± 0.043
24,TTTTCGATTT,1.42 ± 1
25,TTTTCGCTAT,2.29 ± 1.6

row,Sequence,switch fluorescence ratio
1,TTTTCGGCTC,1.04 ± 0.048
2,TTTTCGGGAT,1.19 ± 0.42
3,TTTTCGGTTT,1 ± 0.051
4,TTTTCGTCCT,1.18 ± 0.18
5,TTTTCGTGTT,1 ± 0.032
6,TTTTCGTTTT,1.04 ± 0.082
7,TTTTCTGAGG,1.01 ± 0.044
8,TTTTCTTGAA,0.9852 ± 0.0038
9,TTTTCTTTGC,1.03 ± 0.042
10,TTTTCTTTTT,1.06 ± 0.14
11,TTTTGAAGTG,1.02 ± 0.034
12,TTTTGAAGTT,1 ± 0.039
13,TTTTGAATCT,0.953 ± 0.033
14,TTTTGAATTG,0.9841 ± 0.005
15,TTTTGACAGT,0.996 ± 0.039
16,TTTTGACATT,1.05 ± 0.032
17,TTTTGACCGA,0.976 ± 0.073
18,TTTTGACGAG,1.016 ± 0.0033
19,TTTTGACGTT,1.04 ± 0.042
20,TTTTGAGATA,0.97489 ± 3.4e-05
21,TTTTGAGGAC,1.034 ± 0.0035
22,TTTTGAGGGA,0.9877 ± 0.002
23,TTTTGATAGT,0.991 ± 0.026
24,TTTTGATCCG,1.09 ± 0.082
25,TTTTGATTCT,1.01 ± 0.028

# From the supplement of paper PMC10126150
